Data published in paper PMC5224236 (ACS Chemical Biology, 2016).
Like-named read-outs stand apart in the source and are kept apart here.

Columns and labels:
Assay in all cases: SPR
[1] = molecular target: T1, full-length wild-type p97/VCP (UniProt P55072 1-806)
[2] = molecular target: T1, full-length wild-type p97/VCP; remark: listed apart in the source
[3] = molecular target: T1, full-length wild-type p97/VCP; remark: listed apart in the source
[4] = molecular target: full-length p97 R155H (MSP1 mutant) (UniProt P55072 1-806, R155H)
Sequence of full-length p97 R155H (MSP1 mutant) (P55072 whole entry R155H): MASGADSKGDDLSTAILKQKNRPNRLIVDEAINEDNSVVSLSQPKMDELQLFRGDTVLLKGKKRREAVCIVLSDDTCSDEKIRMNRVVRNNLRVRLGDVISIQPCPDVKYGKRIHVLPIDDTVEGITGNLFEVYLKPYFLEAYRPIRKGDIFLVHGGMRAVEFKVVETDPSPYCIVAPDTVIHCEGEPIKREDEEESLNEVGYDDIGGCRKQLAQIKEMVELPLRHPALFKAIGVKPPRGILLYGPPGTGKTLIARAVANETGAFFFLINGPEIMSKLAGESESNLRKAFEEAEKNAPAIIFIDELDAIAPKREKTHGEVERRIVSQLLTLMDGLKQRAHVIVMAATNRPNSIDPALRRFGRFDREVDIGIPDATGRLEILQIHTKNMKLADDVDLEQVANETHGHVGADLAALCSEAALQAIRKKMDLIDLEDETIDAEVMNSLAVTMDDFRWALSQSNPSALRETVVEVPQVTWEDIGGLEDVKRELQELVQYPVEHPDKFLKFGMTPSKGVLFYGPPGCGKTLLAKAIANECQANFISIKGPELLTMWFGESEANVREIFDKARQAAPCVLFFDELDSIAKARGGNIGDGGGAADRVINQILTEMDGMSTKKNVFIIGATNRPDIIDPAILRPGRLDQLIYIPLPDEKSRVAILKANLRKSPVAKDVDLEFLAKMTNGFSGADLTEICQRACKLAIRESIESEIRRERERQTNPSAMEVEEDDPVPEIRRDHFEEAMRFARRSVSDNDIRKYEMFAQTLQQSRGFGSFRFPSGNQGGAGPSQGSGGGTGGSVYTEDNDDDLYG

[5] = molecular target: full-length p97 A232E (MSP1 mutant) (UniProt P55072 1-806, A232E)
Sequence of full-length p97 A232E (MSP1 mutant) (P55072 whole entry A232E): as the sequence (P55072 whole entry R155H) above, with H155R, A232E counted along it

T1 sequence (P55072 whole entry): as the sequence (P55072 whole entry R155H) above, with H155R counted along it

B1: p37 (natural protein, human, UniProt Q14CS0 1-331, looked up)
chain: MAEGGGPEPGEQERRSSGPRPPSARDLQLALAELYEDEVKCKSSKSNRPKATVFKSPRTPPQRFYSSEHEYSGLNIVRPSTGKIVNELFKEAREHGAVPLNEATRASGDDKSKSFTGGGYRLGSSFCKRSEYIYGENQLQDVQILLKLWSNGFSLDDGELRPYNEPTNAQFLESVKRGEIPLELQRLVHGGQVNLDMEDHQDQEYIKPRLRFKAFSGEGQKLGSLTPEIVSTPSSPEEEDKSILNAVVLIDDSVPTTKIQIRLADGSRLIQRFNSTHRILDVRNFIVQSRPEFAALDFILVTSFPNKELTDESLTLLEADILNTVLLQQLK
In the case of B1, the Kd [1] is reported as 19 nM, the Kd [2] is reported as 372 nM and the Kd [3] is reported as 46 nM.

B2: full-length human p47 (natural protein, UniProt Q9UNZ2 1-370, looked up)
chain: MAAERQEALREFVAVTGAEEDRARFFLESAGWDLQIALASFYEDGGDEDIVTISQATPSSVSRGTAPSDNRVTSFRDLIHDQDEDEEEEEGQRFYAGGSERSGQQIVGPPRKKSPNELVDDLFKGAKEHGAVAVERVTKSPGETSKPRPFAGGGYRLGAAPEEESAYVAGEKRQHSSQDVHVVLKLWKSGFSLDNGELRSYQDPSNAQFLESIRRGEVPAELRRLAHGGQVNLDMEDHRDEDFVKPKGAFKAFTGEGQKLGSTAPQVLSTSSPAQQAENEAKASSSILIDESEPTTNIQIRLADGGRLVQKFNHSHRISDIRLFIVDARPAMAATSFILMTTFPNKELADESQTLKEANLLNAVIVQRLT
With B2 the “KD, high-affinity site (two-site fit)” value [4] was 18 nM, the “KD, high-affinity site (two-site fit)” value [5] was 21 nM and the “KD, high-affinity site (two-site fit)” value [2] was 184 nM.
